Data taken from paper PMC7090385 (Cell Reports, 2020).

What was measured:
[1] = target: recombinant NCS-1 (not myristoylated) (UniProt P62166 1-190, biotin (EZ-Link NHS-PEG4-biotin) where bound to the streptavidin sensor); assay: BLI
[2] = target: T1, SID2p peptide (APOL1 G332-L392, WT) (human); assay: SPR
T1 peptide: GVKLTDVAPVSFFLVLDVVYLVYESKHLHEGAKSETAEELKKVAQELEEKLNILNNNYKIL

recombinant NCS-1 (not myristoylated), sequence (P62166 whole entry): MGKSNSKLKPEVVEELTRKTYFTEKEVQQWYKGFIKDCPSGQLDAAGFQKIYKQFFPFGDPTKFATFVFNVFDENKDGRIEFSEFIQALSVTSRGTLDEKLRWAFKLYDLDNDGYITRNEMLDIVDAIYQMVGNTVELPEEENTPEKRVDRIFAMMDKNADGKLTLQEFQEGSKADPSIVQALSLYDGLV

Binder | Kd [1] | binding result [2]
recombinant APOL3 (natural protein, biotin (EZ-Link NHS-PEG4-biotin), only where APOL3 was the bound partner (Figure 5A)) MDSEKKRFTEEATKYFRERVSPVHLQILLTNNEAWKRFVTAAELPRDEADALYEALKKLRTYAAIEDEYVQQKDEQFREWFLKEFPQVKRKIQESIEKLRALANGIEEVHRGCTISNVVSSSTGAASGIMSLAGLVLAPFTAGTSLALTAAGVGLGAASAVTGITTSIVEHSYTSSAEAEASRLTATSIDRLKVFKEVMRDITPNLLSLLNNYYEATQTIGSEIRAIRQARARARLPVTTWRISAGSGGQAERTIAGTTRAVSRGARILSATTSGIFLALDVVNLVYESKHLHEGAKSASAEELRRQAQELEENLMELTQIYQRLNPCHTH | 36.5 ± 2.6 nM | –
LTDNEAWNGFVAAAELPRNEADELRKALDNLARQMIMK [LZ1p peptide (APOL1 L88-K125)] | – | binds
